30 sequences from the nanobody polyreactivity screen of Harvey et al. (2022) can be followed below.

This data set in a line: yeast display, Sf9 membrane polyspecificity reagent, FACS + sequencing; frameworks hold sequencing errors. Put shortly:
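Galactose induction of a Saccharomyces cerevisiae BJ5465 synthetic nanobody display library ran 36–48 hours. The cells were then stained for 1 hour at 4 °C with 10% biotinylated, detergent-solubilized Sf9 membrane reagent, pulled down on streptavidin microbeads and FACS-sorted into low and high (top ~1%) gates on expression and reagent-binding fluorescence. Labels for polyreactivity follow the gate of origin.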
Regarding “QVQLVESGGGLVQAGGSLRLSCAASGIISGEYAMGWYRQAPGKERELVAAIDYSGVSTYYADSVKGRFTISRDNAKNTVYLQMNSLKPEDTAVNYCAAYPSSEYDYWGQGTQVTVSS”, the “polyreactivity (PSR sort gate)” value is on record as “low polyreactivity”. Regarding “QVQLVESGGGLVQAGGSLRLSCAASGFTFRRYAMGWYRQAPGKERELVAAITRDDSTNYADSVKGRFTISRDNAKNTVYLQMNSLKPEDTAVYYCAARLWYPYYYWGQGTQVTVSS”, the “polyreactivity (PSR sort gate)” value is recorded as “high polyreactivity”. “QVPLVESGGGLVQAGGSLRLSCSASGIIFNAYTMGWYRQAPGKESELVAAITTAGSTHYADSVKGRFTISRDNAKNTVYLQMNSLKPEDTAVYYCNADTPVGKYAHLACYQDYDDWGQGTQVTVSS”: the “polyreactivity (PSR sort gate)” value is recorded as “low polyreactivity”. Then “QVQLVESVGGLVQAGGSLPLSSAASGSIFYRYALGWYRQAPGKERELVAAISDRSGSTYYADSVKGRFTISRDNAKNTVYLQMNSLKPEATAVYYCAASYNYRAAGYGLSRYYYWGQGTQVTVSS”, with “high polyreactivity”; and “QVQLVESGGGLVQAGGSLRLSCAASGFTFARYSMGWYRQAPGKERELVAAISRGGDSTYYADSVKGRFTISRDNAKNTVYLQMNSLKPEDSAVYYCAADISHRGYREYYSWGQGTQVTVSS”, with “high polyreactivity”; and “QVQLVESGGGLVQAGGSLRLSCAASGSIFEDYAMGWYRQAPGKERELDAAIDWGDGDTYYADSVKGRFTISRDNAKNSVYLQMNSLKPEDTAVYYCAADLVGYSGDYFDEEYYWGQGTQVTVSS”, with “high polyreactivity”. Then “QVQLVESAGGIVQAGGSLRLSCAASGFTFSRYAKGWNRPEPGKEREWVAAMTSSGGSTYYADSVKGRFTISRDNAKNTVYLQMNSLKPEDTAVYYCNARASGRTYRVDYWGQGTQVTVSS”, with “high polyreactivity”. With “QVQLVESVGGLVQAGGSLRLSCAASGFTFHLYAMGWYRPAPGKERELDAAISQSGDSTYYADSVKGRFTISRDNAKNTVYLQMNSLKPEDTAVYYVNADNDGVVWSYPFDFDYWGQGTQVTVSS” the entry was “low polyreactivity”; with “QVQLVESGGGLVQAGGSLRLSCAASGLILRRYAMGWYRQAPGKERELVAAITSGGRTYYADSVKGRFTISRDNAKNTVYLQMNSLKPEDTAVYYCNAVKLVRHTTPYDYWGQGTQVTVSS”, “high polyreactivity”. Take “QVQLVDSGGGLVQAGGSLRLSCAASGSTFPIYAMEWYRQAPGKERELVAAISSGGSTYYADSVKGRFTISRDNAKNTVYLQMNSLKPEDTAVYYCAADYSQPNFEYYYWGQGTQVTVSS”: the “polyreactivity (PSR sort gate)” value is reported as “low polyreactivity”. With “QVQLQESGGGQVQAGGSLRLSCAASGTIFLYAFMGWYRQAPGKERELVAAIDVGTTTNYADSVKGRFTISRDNAKNTVYLQMNSLKPEDTAVYYCAAPYVSWDYRYYYWGQGTQVTVSS” the entry was “low polyreactivity”; with “QVQLVESGGGLVQAGGSLRLSCAASGYTFTSNDMGWYRQAPGKERELFAAITRVGSTNYADSVKGRFTISRDNAKNTVYLQMNSLKPEDTAVYYCAADLWQRHYLVGFGIRYDYWGQGTQVTVSS”, “low polyreactivity”; with “QVQLVESGGGLVQAGGSLRLSCAATGSIFNYYAMGWYRQAPGKERELVATISRGGRTNYADSVKGRFTISRDNAKNTVYLQMNRLKAEETAVYYCAADRYYTYNVYYFSSFVYWGHGTQVTVSS”, “high polyreactivity”. With “QVQLVESGGGLVQAGGSLRLSCAASGSIFSSYAMGWYRQAPGKERELVAAISTAGSTNYADSVKGRFTISRDNAKNTVYLQINSLKPEDTAVYYCAADSGDQQSYGLDLNHDFDYWGQGSQVTVSS” the entry was “low polyreactivity”; with “QVQLVESGGGLVQAGGSLRLSCAASGYTFRYNAMGWYRQAPGKERELVATISRGGNTNYADSVKGRFTISRDNAKNPVYLQMISLKAEDTAVYYCAKVWRTFPYYSWGQGTQVTVSS”, “high polyreactivity”; with “QVQLVESGGGLDQARGSLRLSCAASGSTFAFYAMGWYRQAPGKERELVAAITGDGDSTYYADSVKGRFTISRDNAKNTVYLQMNSLKPEDTAVYYCAKSSGGGPSSFDYWGQGTQVTVSS”, “low polyreactivity”. With “QVQLVESGGGLLQAGGSLRLSCAASGFTIYRYAMGWYRQAPGKERELVGAITGGGGSTYYADSVKGRFTISRDNAKNTVYLQMNSLKPEDTAVYYCAVDVYHKGQYRWSYVYWGQGTQVTVSS” the entry was “low polyreactivity”; with “QVQLVESGGGLVQAGGSLRLSCAASGRTLFYYTMGWYRQAPGKERELVAAISSGDSTNYADSVKGRFTISRDNAKNTVYLQMNRLKPEDTAVYYCATQYLLDYKKTYRTYYSPYDYWGQGTQVTVSS”, “low polyreactivity”; with “QVQLVESGGGLVQAGGTLRLSCPASGRNILGYAMGWYRPAPGKERELVAALRRSGGHTFYADSVKGRFTISRDNAKNRVYFQMNSLKPEDTAVYYCAASTSGAIRRDGFWGQGTQVSVSS”, “low polyreactivity”. “QVQLVESGGGLVQAGGSLRLSCADSGSIFRSYDMGRYSQAPGKERELVAGISYSGGSTYYADSVKRRFTISRDNAKNTVYLQMNSLKPEDTAVYYCNVDGGTYFFFVGAWGEYDYWGQGTQVTVSS”: the “polyreactivity (PSR sort gate)” value is listed as “low polyreactivity”. With “QVQLVESGGGLVQAGGSLGLSCAASGSTFGPNAMGWYRQAPGKERELVARITDSGGSTYYADSVKGRFTISRDNAKNTVDLQMNSLKQDDTAVYYCAAEVYLLSRYYTPAYDYWGQGTLVTVSS” the entry was “low polyreactivity”; with “QVQLVESGGGLVQAGGSLRLSCAASVIIFRLYGMGWYRQAPGKEREFVATITWRGGRTNYADSVKGRFTISRDNAKNTVYLQMNSLKPQDTAVYYCAKVVRYARSNEYDSWGQGTQVTVSS”, “low polyreactivity”.

On to “QVQLVESGGGLVQAGGSLRLSCAASGIIFGTNAMGWSRQAPGKERELVAAITWSGGTYYADSVKGRFTISRDNAKITVYLQMNSQKPEDTAVYYCNAEWRVYPDLYDYWGQGTQVTVSS”, for which the “polyreactivity (PSR sort gate)” value was “low polyreactivity”. With “QVQLVDSGGGLVQAGGSLRLSCADSGSIFSRNTMGWYRQAPGKERELVAGISSSGSRTYYADSVKGRFTISRDNAKNTVYLQMNSLKPEDTAFYYCAAGSQRRYYHTNCDSFNYSGQGTQVTVSS” the entry was “low polyreactivity”; with “QVQLVESGGGLVQAGGSLRLSCAASGITFDYYAMGWYRQAPRKERELVPGISWGGGSTYYADSVKGRFTISRDNAKNTVYLQMNSLKPEDTAVYYCAADIVSSPSSYVPPGDYWGQGTQVTVSS”, “low polyreactivity”. Then “QVQLVESGGGLVQAGGSLRLSCAASGSTFSLYAMGWYRQAPGKERELVAAISWSDGSTYYADSVKGRFTISRDNAKNTVYLQMNSLKPEDTAVYYCAAESTVRPYEHSGDYWGQGTQVTVSS”, with “low polyreactivity”. On to “QVQLVESGGGLVQAGGSLRLSCAASGRTLDSNAMGWYRQAPGKERELVAAISSAGSTNYADSVKGRFTISRDNAKNTVYLQMNSLKPEDTAVYYCAADLIGSHDYWGQGTQVTVSS”, for which the “polyreactivity (PSR sort gate)” value is “low polyreactivity”. With “QVQLVESGGGLVQAGGSLRLSCAASGFTFGYYAMGWYRQAPGKERELVAGITTDGSTNYADSVKGRFTISRDNAKNTVYLQMNSLKPEDTAVYYCAADDLHWLNSKRYRGRDYWGQGTQVTVSS” the entry was “low polyreactivity”; with “QVQLVASAAGLVQAVGSLRLSCAASASTIGYYAMGWSRQAPGKERELVAAISWSGGSTYYADSVKGRFTISRDNAKNTVYLQMNSLKPEDTAVYFCAADTYPDYYLVEYYYWGQGTQVTVSS”, “low polyreactivity”. Then “QVQLVESGVGLVQAGGSVRLSCAASGSIFSINAMGWYRQAPGKERELVAAISASGGSTYYADSVKGRFTISRDNAKNTVYLQMNSLKPEDTAVYYCAVYTHDRFSRYDQGDYWGQATQVTVSS”, with “low polyreactivity”.
